Experimental data: publication PMC4357710, “TEFM is a potent stimulator of mitochondrial transcription elongation in vitro” (Nucleic Acids Research, 2015)

B1: human TEFM (mitochondrial transcription elongation factor), residues 36-360 (natural protein, UniProt Q96QE5 36-360, looked up)
chain: KSTTPKKITPNVTFCDENAKEPENALDKLFSSEQQASILHVLNTASTKELEAFRLLRGRRSINIVEHRENFGPFQNLESLMNVPLFKYKSTVQVCNSILCPKTGREKRKSPENRFLRKLLKPDIERERLKAVNSIISIVFGTRRIAWAHLDRKLTVLDWQQSDRWSLMRGIYSSSVYLEEISSIISKMPKADFYVLEKTGLSIQNSSLFPILLHFHIMEAMLYALLNKTFAQDGQHQVLSMNRNAVGKHFELMIGDSRTSGKELVKQFLFDSILKADPRVFFPSDKIVHYRQMFLSTELQRVEELYDSLLQAIAFYELAVFDSQP
modifications: amine-labeled with NT-547 dye (only in the MST with POLRMT)
notes: human TEFM, UniProt Q96QE5, residues 36-360; lacks the predicted mitochondrial targeting signal; The gel filtration used unlabelled protein; the MST used NT-547-labelled protein; also called recombinant TEFM; recombinant human TEFM; source: KRX cells (Promega), purified (Ni-IMAC, TEV cleavage, HiTrap Heparin, Sephacryl S-200 gel filtration); not shown: His6, N-terminal, cleaved
B2: elongation-like DNA:RNA template (18-mer DNA / 12-mer RNA) (DNA:RNA)
DNA: GGGAATGCATGGCGCGGC
RNA: UUUUGCCGCGCC

Columns and labels:
[1] = target: the molecule itself; assay: SEC; analytic gel filtration of recombinant TEFM; apparent molecular weight 82 kDa against 37.6 kDa for the chain
POLRMT = POLRMT (Homo sapiens, UniProt O00411 42-1230); assay: MST; 500 uM ATP (one nt incorporation, paused), 10 mM Mg2+, no TEFM; MST: 25 mM Tris-HCl pH 8.0, 100 mM NaCl, 10 mM MgCl2, 10% glycerol, 1 mM DTT, 500 uM ATP, 0.05% Tween-20, 15 nM template, 22 C; footprinting: 25 mM Tris-HCl pH; conditions: protein: recombinant; label: 5' Alexa488 on DNA; 8 bp DNA:RNA hybrid; DNA 5' overhang 10 nt; RNA 5' overhang 4 nt (UUUU)
POLRMT;TEFM = POLRMT;TEFM (Homo sapiens;Homo sapiens, UniProt O00411;Q96QE5 42-1230;36-360, |); assay: MST; POLRMT titrated with 2000 nM TEFM; 500 uM ATP (one nt incorporation, paused), 10 mM Mg2+; MST: 25 mM Tris-HCl pH 8.0, 100 mM NaCl, 10 mM MgCl2, 10% glycerol, 1 mM DTT, 500 uM ATP, 0.05% Tween-20, 15 nM template, 22 C; footprinting: 25 mM Tris-HCl pH; conditions: protein: recombinant;recombinant; copies: 1;2; label: 5' Alexa488 on DNA; 8 bp DNA:RNA hybrid; DNA 5' overhang 10 nt; RNA 5' overhang 4 nt (UUUU)
POLRMT;TEFM, sequence (O00411 42-1230, chain 1 of 2, one chain of several): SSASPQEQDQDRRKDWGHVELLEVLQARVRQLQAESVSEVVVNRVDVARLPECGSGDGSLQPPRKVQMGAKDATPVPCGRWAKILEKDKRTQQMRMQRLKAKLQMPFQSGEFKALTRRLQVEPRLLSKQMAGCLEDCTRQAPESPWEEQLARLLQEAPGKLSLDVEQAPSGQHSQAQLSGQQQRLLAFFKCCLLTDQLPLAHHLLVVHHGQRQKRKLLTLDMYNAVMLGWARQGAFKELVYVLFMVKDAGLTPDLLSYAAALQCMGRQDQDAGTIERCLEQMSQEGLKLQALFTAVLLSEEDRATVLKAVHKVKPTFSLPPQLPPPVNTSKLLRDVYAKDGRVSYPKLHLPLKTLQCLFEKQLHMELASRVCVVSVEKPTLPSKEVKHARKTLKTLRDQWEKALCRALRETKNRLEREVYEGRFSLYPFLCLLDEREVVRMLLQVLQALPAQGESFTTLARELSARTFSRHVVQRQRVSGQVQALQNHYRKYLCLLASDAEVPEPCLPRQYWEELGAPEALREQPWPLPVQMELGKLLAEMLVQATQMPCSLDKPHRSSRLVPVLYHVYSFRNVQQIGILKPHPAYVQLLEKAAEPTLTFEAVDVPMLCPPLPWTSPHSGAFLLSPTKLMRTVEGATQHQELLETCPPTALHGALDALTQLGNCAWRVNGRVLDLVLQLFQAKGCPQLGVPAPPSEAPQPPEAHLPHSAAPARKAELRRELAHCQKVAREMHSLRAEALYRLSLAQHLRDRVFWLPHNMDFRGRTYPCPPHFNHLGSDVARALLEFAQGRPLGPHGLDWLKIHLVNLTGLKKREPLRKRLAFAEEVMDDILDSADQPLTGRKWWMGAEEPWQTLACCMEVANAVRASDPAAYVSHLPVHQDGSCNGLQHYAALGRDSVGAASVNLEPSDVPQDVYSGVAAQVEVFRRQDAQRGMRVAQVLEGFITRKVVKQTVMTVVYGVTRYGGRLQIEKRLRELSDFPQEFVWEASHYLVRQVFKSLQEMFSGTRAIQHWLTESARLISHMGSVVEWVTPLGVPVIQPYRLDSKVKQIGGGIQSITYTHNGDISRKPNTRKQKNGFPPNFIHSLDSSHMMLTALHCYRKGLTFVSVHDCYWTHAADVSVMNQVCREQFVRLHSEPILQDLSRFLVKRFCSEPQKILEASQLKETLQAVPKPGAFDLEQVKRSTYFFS

POLRMT, sequence (O00411 42-1230): as the sequence (O00411 42-1230, chain 1 of 2, one chain of several) above

| Binder | stoichiometry N [1] | Kd (POLRMT) | Kd (POLRMT;TEFM) |
| --- | --- | --- | --- |
| B1 | 2 |  |  |
| B2 |  | 47.8 ± 2.88 nM | 11.2 ± 1 nM |
